Measured values as given in patent US20050080014A1 (Amgen, published 2005).
Groups on a side chain read outwards from the residue. No end group written: not given here. maleimide = maleimide group of MeO-PEG-maleimide, which reacts with the Cys side-chain thiol

T1: human mpl receptor (human, UniProt P40238 26-635)
T1 sequence (looked up): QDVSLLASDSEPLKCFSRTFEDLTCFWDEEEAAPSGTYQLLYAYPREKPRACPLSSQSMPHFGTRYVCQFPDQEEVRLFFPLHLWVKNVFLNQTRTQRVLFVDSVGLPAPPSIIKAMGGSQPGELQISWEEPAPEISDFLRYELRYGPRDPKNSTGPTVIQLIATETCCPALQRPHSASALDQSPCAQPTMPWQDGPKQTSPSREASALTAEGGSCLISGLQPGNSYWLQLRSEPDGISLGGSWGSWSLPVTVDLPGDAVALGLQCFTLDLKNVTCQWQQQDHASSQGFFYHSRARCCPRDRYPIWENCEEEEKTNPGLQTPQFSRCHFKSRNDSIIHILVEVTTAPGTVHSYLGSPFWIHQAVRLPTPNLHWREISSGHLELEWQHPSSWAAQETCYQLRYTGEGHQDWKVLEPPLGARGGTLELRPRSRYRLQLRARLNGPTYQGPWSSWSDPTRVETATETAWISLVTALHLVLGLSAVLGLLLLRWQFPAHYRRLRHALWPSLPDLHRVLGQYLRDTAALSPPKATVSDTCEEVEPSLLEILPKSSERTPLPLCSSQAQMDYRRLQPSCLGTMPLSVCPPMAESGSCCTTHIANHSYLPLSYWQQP


target: T1, human mpl receptor; assay: cell-based or functional assay; conditions: not given

| Relative Potency (EC50), proliferation of murine 32D cells transfected with human mpl receptor | Molecule |
| --- | --- |
| 3 log units of activity (1 unit is approximately 10-fold) | IEGPTLRQWLAARAGPNGIEGPTLRQWLAARA [TMP-GPNG-TMP (SEQ ID NO. 10)] |
| 4 log units of activity (1 unit is approximately 10-fold) | IEGPTLRQWLAARAGGGKGGGGIEGPTLRQWLAARA [TMP-GGGKGGGG-TMP (SEQ ID NO. 14)] |
| 4 log units of activity (1 unit is approximately 10-fold) | IEGPTLRQWLAARAGGGCGGGGIEGPTLRQWLAARA [TMP-GGGCGGGG-TMP (SEQ ID NO. 16)] |
| 5 log units of activity (1 unit is approximately 10-fold) | IEGPTLRQWLAARAGGGKGGGGIEGPTLRQWLAARA (not fully specified (residue 18)) [TMP-GGGK(PEG)GGGG-TMP (SEQ ID NO. 17)] |
| 5 log units of activity (1 unit is approximately 10-fold) | IEGPTLRQWLAARAGGGC([maleimide-mPEG 5 kDa])GGGGIEGPTLRQWLAARA [TMP-GGGC(PEG)GGGG-TMP (SEQ ID NO. 18)] |
| 4 log units of activity (1 unit is approximately 10-fold) | IEGPTLRQWLAARAGGGNGSGGIEGPTLRQWLAARA [TMP-GGGNGSGG-TMP (SEQ ID NO. 19)] |
| 4 log units of activity (1 unit is approximately 10-fold) | IEGPTLRQWLAARAGGGCGGGGIEGPTLRQWLAARA (also: homodimer: intermolecular disulfide between the linker Cys18 of two chains) [peptide 22 (dimer of a dimer, oxidised peptide 18)] |

The next lines start with the molecule.

| Molecule | Relative Potency (EC50), proliferation of murine 32D cells transfected with human mpl receptor |
| --- | --- |
| IEGPTLRQWLAARAGGGGGGIEGPTLRQWLAARA [TMP-(Gly)n-TMP, n = 6] | 4 log units of activity (1 unit is approximately 10-fold) |
| IEGPTLRQWLAARAGGGGGGGIEGPTLRQWLAARA [TMP-(Gly)n-TMP, n = 7] | 4 log units of activity (1 unit is approximately 10-fold) |
| IEGPTLRQWLAARAGGGGGGGGIEGPTLRQWLAARA [TMP-(Gly)n-TMP, n = 8] | 4.5 log units of activity (1 unit is approximately 10-fold) |
| IEGPTLRQALAARAGGGGGGGGIEGPTLRQALAARA [IEGPTLRQALAARA-GGGGGGGG-IEGPTLRQALAARA (SEQ ID NO. 13)] | 0.5 log units of activity (1 unit is approximately 10-fold) |
| IEGPTLRQWLAARA [TMP monomer (SEQ ID NO: 1)] | 1 log units of activity (1 unit is approximately 10-fold) |
| IEGPTLRQWLAARA (also: dimer of two TMP chains joined at C-termini through a Lys branch (structure only in a drawing)) [TMP C-C dimer (SEQ ID NO: 2)] | 3.5 log units of activity (1 unit is approximately 10-fold) |
| IEGPTLRQWLAARAIEGPTLRQWLAARA [TMP-(Gly)n-TMP, n = 0] | 4.5 log units of activity (1 unit is approximately 10-fold) |
| IEGPTLRQWLAARAGIEGPTLRQWLAARA [TMP-(Gly)n-TMP, n = 1] | 4 log units of activity (1 unit is approximately 10-fold) |
| IEGPTLRQWLAARAGGIEGPTLRQWLAARA [TMP-(Gly)n-TMP, n = 2] | 4 log units of activity (1 unit is approximately 10-fold) |
| IEGPTLRQWLAARAGGGIEGPTLRQWLAARA [TMP-(Gly)n-TMP, n = 3] | 4 log units of activity (1 unit is approximately 10-fold) |
| IEGPTLRQWLAARAGGGGIEGPTLRQWLAARA [TMP-(Gly)n-TMP, n = 4] | 4 log units of activity (1 unit is approximately 10-fold) |
| IEGPTLRQWLAARAGGGGGIEGPTLRQWLAARA [TMP-(Gly)n-TMP, n = 5] | 4 log units of activity (1 unit is approximately 10-fold) |

same assay, conditions: scale: log units of activity

| Molecule | Relative Potency (EC50), proliferation of murine 32D cells transfected with human mpl receptor |
| --- | --- |
| TMP-(Gly)n-TMP, n = 14 (peptide) | 4 |
| TMP-(Gly)n-TMP, n = 9 (peptide) | 4 |
| TPO (ligand) | 4 |
| TMP-(Gly)n-TMP, n = 10 (peptide) | 4 |
